According to patent US20040006214A1:

Biological target: hepatitis C virus in patient serum
Experiment: immobilized adsorbent shaken with HCV patient serum 37 C 2 h; HCV RNA in supernatant against saline control

Substance	Adsorption rate (%)
peptide having the amino acid sequence of 57 residues in the C3 domain of protein G with cysteine ad	28
protein G (Pharmacia LKB) (from UniProt P19909 303-497)	82
